Test results as given in US20260242478A1 (published 2026).
Where no end group is shown, it is not given here.

B1: Phage-1454 peptide (SEQ ID NO: 1750) (peptide)
peptide: TCSAGAHYEWPYCL
notes: tested as crude clonal phage supernatant
B2: Phage-1448 peptide (SEQ ID NO: 1744) (peptide)
peptide: TCTAGFSYNWPMCF
notes: as for B1
B3: Phage-1446 peptide (SEQ ID NO: 1742) (peptide)
peptide: SCAAVFSFPWSPCL
notes: as for B1
B4: Phage-1479 (peptide, not shown: large carriers)
peptide: WCAAVFSYSWPLCL
modifications: cysteine pairing not given here; also: displayed as fusion to phage pIII, pIII and linker not given here
notes: Clonal phage of the Peptide-92 optimisation library, tested as crude phage supernatant
B5: Phage-1475 (peptide, not shown: large carriers)
peptide: MCAAGAMYAWPTCL
modifications: cysteine pairing not given here; also: fused to phage pIII protein, pIII and linker not given here
notes: as for B4
B6: Phage-1480 (peptide, not shown: large carriers)
peptide: GCAAGFHYPWPLCL
modifications: cysteine pairing not given here; also: displayed as fusion to phage pIII, pIII and linker not given here
notes: as for B4
B7: Phage-1447 peptide (SEQ ID NO: 1743) (peptide)
peptide: TCSAGFSYSWPACF
notes: as for B1
B8: Phage-1487 (peptide, not shown: large carriers)
peptide: TCAAGAHYAWPECF
notes: as for B4
B9: Phage-1450 peptide (SEQ ID NO: 1746) (peptide)
peptide: TCSAGATYSWPQCL
notes: as for B1
B10: Phage-1457 peptide (SEQ ID NO: 1753) (peptide)
peptide: TCAAGAMWQWPVCL
notes: as for B1
B11: Phage-1477 (peptide, not shown: large carriers)
peptide: SCAAVFPYPWPPCF
modifications: cysteine pairing not given here; also: fused to phage pIII protein, pIII and linker not given here
notes: as for B4
B12: Phage-1484 (peptide, not shown: large carriers)
peptide: MCSAGATYPWPMCL
notes: as for B4
B13: Phage-1488 (peptide, not shown: large carriers)
peptide: RCRAGFSYNWPYCM
notes: as for B4
B14: Phage-1459 peptide (SEQ ID NO: 1755) (peptide)
peptide: SCAAGAMWPWPVCV
notes: as for B1
B15: Phage-1481 (peptide, not shown: large carriers)
peptide: LCEEFFHYSWPVCL
modifications: cysteine pairing not given here; also: displayed as fusion to phage pIII, pIII and linker not given here
notes: as for B4
B16: Phage-1489 (peptide, not shown: large carriers)
peptide: WCAAGATWPWPLCI
notes: as for B4
B17: Phage-1486 (peptide, not shown: large carriers)
peptide: TCAAGAVWGWPLCF
notes: as for B4
B18: Phage-1449 peptide (SEQ ID NO: 1745) (peptide)
peptide: TCSAGATYAWPACY
notes: as for B1
B19: Phage-1460 peptide (SEQ ID NO: 1756) (peptide)
peptide: SCAAGAAYPWPACL
notes: as for B1
B20: Phage-1451 peptide (SEQ ID NO: 1747) (peptide)
peptide: TCSAGAYYAWPVCL
notes: as for B1
B21: Phage-1458 peptide (SEQ ID NO: 1754) (peptide)
peptide: PCSAGATYAWLYCV
notes: as for B1
B22: Phage-1485 (peptide, not shown: large carriers)
peptide: TCAAGATYPWPSCL
notes: as for B4
B23: Phage-1455 peptide (SEQ ID NO: 1751) (peptide)
peptide: QCAAGASYPWPVCL
notes: as for B1
B24: Phage-1478 (peptide, not shown: large carriers)
peptide: TCSAGAMYPWPWCV
modifications: cysteine pairing not given here; also: fused to phage pIII protein, pIII and linker not given here
notes: as for B4
B25: Phage-1456 peptide (SEQ ID NO: 1752) (peptide)
peptide: LCKPGVPYQWPTCF
notes: as for B1
B26: Phage-1476 (peptide, not shown: large carriers)
peptide: TCAAGASFPWPWCL
modifications: cysteine pairing not given here; also: fused to phage pIII protein, pIII and linker not given here
notes: as for B4
B27: Phage-1452 peptide (SEQ ID NO: 1748) (peptide)
peptide: LCRAGAMWPWPTCL
notes: as for B1
B28: Phage-1482 (peptide, not shown: large carriers)
peptide: TCAAGAAWPWPHCL
modifications: cysteine pairing not given here; also: displayed as fusion to phage pIII, pIII and linker not given here
notes: as for B4
B29: Phage-1483 (peptide, not shown: large carriers)
peptide: QCAAGAMWTWPACF
notes: as for B4
B30: Phage-1453 peptide (SEQ ID NO: 1749) (peptide)
peptide: TCSAGATFHWPQCF
notes: as for B1

How the values were obtained:
[1] = target: T1, Anti-CD28 Fab (SEQ ID NOs: 696, 697); experiment: phage ELISA; captured anti-CD28 Fab pre-incubated with CD28 antigen as competitor, anti-M13-HRP
T1 construct: In the phage ELISA the Fab was biotinylated and captured on neutravidin coated plates
T1 sequence (VH, as listed by the source, chain 1 of 2): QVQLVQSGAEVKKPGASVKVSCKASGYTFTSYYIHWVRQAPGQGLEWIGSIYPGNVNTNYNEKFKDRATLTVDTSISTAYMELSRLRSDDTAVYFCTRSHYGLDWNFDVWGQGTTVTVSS
T1 sequence (VL, as listed by the source, chain 2 of 2): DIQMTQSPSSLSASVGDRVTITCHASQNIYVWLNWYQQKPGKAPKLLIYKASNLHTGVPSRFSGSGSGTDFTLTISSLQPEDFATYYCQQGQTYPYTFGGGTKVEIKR
Method: (§1) Clonal phage were harvested as crude supematants and screened via standard ELISAs. […] Prior to the addition of clonal phage, wells were incubated with blocking buffer and CD28 antigen or blocking buffer alone. Without washing or aspirating, clonal phage supematants were then added to the wells and incubated for a short time. Wells were then washed followed by detection of bound phage using a horse radish conjugated anti-M13 antibody.

[2] = target: T1, Anti-CD28 Fab (SEQ ID NOs: 696, 697); experiment: phage ELISA; biotinylated anti-CD28 Fab on neutravidin plate, clonal phage detected with anti-M13-HRP
Method: as §1

[3] = target: T2, Anti-CD28 Fab (SEQ ID NOs: 696, 697); experiment: phage binding ELISA; Fab-coated wells pre-incubated with CD28 antigen as competitor;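 also: clonal phage supernatants added to wells preincubated with CD28 antigen or blocking buffer only, bound phage detected with HRP-conjugated anti-M13 antibody, buffer-only wells as control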
T2 construct: In the phage ELISA the Fab was biotinylated and captured on neutravidin coated plates
T2 sequence (VH, as listed by the source, chain 1 of 2): as the sequence (VH, as listed by the source, chain 1 of 2) above
T2 sequence (VL, as listed by the source, chain 2 of 2): as the sequence (VL, as listed by the source, chain 2 of 2) above
Method: as §1

[4] = target: T2, Anti-CD28 Fab (SEQ ID NOs: 696, 697); experiment: phage binding ELISA; biotinylated anti-CD28 Fab on neutravidin plate, bound phage detected with anti-M13 HRP
Method: as §1

Row | Binder | Phage binding ELISA, Anti-CD28 Fab signal in the presence of CD28 [1] | Phage binding ELISA, Anti-CD28 Fab signal [2] | Anti-CD28 Fab signal in the presence of CD28 [3] | Anti-CD28 Fab (SEQ ID NOs: 696, 697) signal [4]
1 | B1 | 0.11 | 1.82 | – | –
2 | B2 | 0.06 | 1.85 | – | –
3 | B3 | 0.08 | 1.87 | – | –
4 | B4 | – | – | 0.06 | 1.75
5 | B5 | – | – | 0.09 | 1.75
6 | B6 | – | – | 0.08 | 1.74
7 | B7 | 0.07 | 1.86 | – | –
8 | B8 | – | – | 0.06 | 1.72
9 | B9 | 0.07 | 1.84 | – | –
10 | B10 | 0.06 | 1.81 | – | –
11 | B11 | – | – | 0.06 | 1.75
12 | B12 | – | – | 0.06 | 1.73
13 | B13 | – | – | 0.06 | 1.72
14 | B14 | 0.06 | 1.8 | – | –
15 | B15 | – | – | 0.06 | 1.74
16 | B16 | – | – | 0.17 | 1.7
17 | B17 | – | – | 0.06 | 1.73
18 | B18 | 0.14 | 1.84 | – | –
19 | B19 | 0.06 | 1.8 | – | –
20 | B20 | 0.08 | 1.84 | – | –
21 | B21 | 0.06 | 1.81 | – | –
22 | B22 | – | – | 0.05 | 1.73
23 | B23 | 0.07 | 1.82 | – | –
24 | B24 | – | – | 0.08 | 1.75
25 | B25 | 0.05 | 1.82 | – | –
26 | B26 | – | – | 0.06 | 1.75
27 | B27 | 0.06 | 1.83 | – | –
28 | B28 | – | – | 0.06 | 1.73
29 | B29 | – | – | 0.07 | 1.73
30 | B30 | 0.08 | 1.83 | – | –
